In PMC8413284:

How the values were obtained:
[1] = molecular target: recombinant human FcγRIIa (human) (UniProt P12318); assay: SPR; R131 allotype
[2] = molecular target: recombinant human FcγRIIIa (human) (UniProt P08637); assay: SPR; F158 allotype
[3] = molecular target: recombinant human FcγRI (human) (UniProt P12314); assay: SPR
[4] = molecular target: rituximab hIgG1 μtp pre-formed hexamer (human); assay: negative stain electron microscopy; antibody 10 μg/ml on grids, 2% uranyl acetate, x80,000
[5] = molecular target: rituximab hIgG1 μtp pre-formed hexamer (human); assay: SEC; SE-UHPLC after Protein A purification, against molecular weight controls; ACQUITY BEH200, 200 mM phosphate pH 7.0, 1 µg injected
[6] = molecular target: rituximab hIgG1 μtp pre-formed hexamer (human); assay: SEC-MALS; 50 μg on Superdex 200 increase 10/300, PBS pH 7.4, 0.5 ml/minute; absolute molecular weight

UniProt P12314, sequence (P12314 16-292): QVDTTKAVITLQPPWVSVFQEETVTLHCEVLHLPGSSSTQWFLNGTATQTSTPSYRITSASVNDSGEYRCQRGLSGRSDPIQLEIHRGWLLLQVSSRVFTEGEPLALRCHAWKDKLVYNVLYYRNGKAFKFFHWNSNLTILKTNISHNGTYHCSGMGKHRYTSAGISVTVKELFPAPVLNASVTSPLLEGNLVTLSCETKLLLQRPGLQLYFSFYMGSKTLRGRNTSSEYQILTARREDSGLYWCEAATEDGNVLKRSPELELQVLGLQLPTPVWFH
UniProt P08637, sequence (P08637 17-208): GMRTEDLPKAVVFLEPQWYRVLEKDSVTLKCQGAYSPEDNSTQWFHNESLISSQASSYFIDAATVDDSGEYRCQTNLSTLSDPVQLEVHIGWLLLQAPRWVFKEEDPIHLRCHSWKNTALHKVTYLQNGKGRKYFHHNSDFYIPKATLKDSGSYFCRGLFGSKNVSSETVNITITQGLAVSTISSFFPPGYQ
UniProt P12318, sequence (P12318 34-217): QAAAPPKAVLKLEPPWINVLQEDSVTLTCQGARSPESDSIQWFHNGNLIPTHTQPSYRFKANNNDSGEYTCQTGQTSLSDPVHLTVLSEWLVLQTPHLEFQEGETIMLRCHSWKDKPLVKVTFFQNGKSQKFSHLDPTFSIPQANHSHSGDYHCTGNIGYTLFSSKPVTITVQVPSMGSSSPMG

Row | Kd [1] | Kd [2] | Kd [3] | stoichiometry N [4] | stoichiometry N [5] | stoichiometry N [6] | Substance
1 | 964 nM | 410 nM | 7.53 nM | – | – | – | rituximab hIgG1 μtp pre-formed hexamer
2 | – | – | – | 6 | 6 | 6 | rituximab hIgG1 μtp pre-formed hexamer (antibody)
3 | 935 nM | 719 nM | 4.36 nM | – | – | – | rituximab hIgG1 wild-type
